Experimental data reported in article PMC6205234.

Biological target: GST-NS1 (Influenza A virus (H3N2)) (UniProt P03495)
Experiment: fluorescence anisotropy

GST-NS1 (Influenza A virus (H3N2)), sequence (P03495 whole entry): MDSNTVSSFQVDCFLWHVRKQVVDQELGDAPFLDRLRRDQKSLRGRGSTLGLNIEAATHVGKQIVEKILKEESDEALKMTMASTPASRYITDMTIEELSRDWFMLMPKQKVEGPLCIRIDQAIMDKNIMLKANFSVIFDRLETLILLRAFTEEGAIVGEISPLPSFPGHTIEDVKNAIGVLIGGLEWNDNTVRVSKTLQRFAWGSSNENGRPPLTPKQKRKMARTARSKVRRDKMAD

Row | Sequence | Kd [µM]
1 | CCAUCCUCUACAGGCG / CGCCUGUAGAGGAUGG [dsRK1] | 0.17
2 | GCUAUCCAGAUUCUGAUU / GAAUCAGAAUCUGGAUAGC [dsCR1] | 2.4
3 | GGGGGGGGGGGGGGGGGU [Poly (G)18] | 1.2
